Here are results for one protein from paper doi:10.1101/2022.09.20.508729, “Loss of the first β-strand of human prion protein generates an aggregation-competent partially “open” form” (bioRxiv, 2022).

The series concerns the molecule itself. The series is described as follows: thioflavin T fluorescence of fibril formation.

B1: PrP^23 (residues 23-231 of human PrP) (natural protein)
chain: not shown
notes: also called full-length WT PrP
Turning to B1, the binding result is “binds”.
